According to article PMC10179162:

Legend:
[1] = biological target: chimeric HPV16 L1:P18I10 capsid protein (293F-derived, chromatography-purified L1:P18I10 VLP) (human papillomavirus type 16 | HIV-1) (UniProt P03101); test: non-reducing SDS-PAGE (disulfide cross-linking); purified VLPs mixed with 2x Laemmli sample buffer with or without 20 mM DTT, 15 min at room temperature; 8-16% gel; blot probed with anti-HPV16 L1 mAb CAMVIR-1
[2] = biological target: chimeric HPV16 L1:P18I10 capsid protein (BEVS/IC-derived, ultracentrifugation-purified L1:P18I10 VLP) (human papillomavirus type 16 | HIV-1) (UniProt P03101); test: as above

For “chimeric HPV16 L1:P18I10 capsid protein (293F-derived, chromatography-purified L1:P18I10 VLP) (from UniProt P03101 1-129; P03101 137-505)”, the percent disulfide-bonded into oligomers (without DTT) [1] was > 99% and the percent monomeric (with DTT) [1] was 80%.

With “chimeric HPV16 L1:P18I10 capsid protein (BEVS/IC-derived, ultracentrifugation-purified L1:P18I10 VLP) (from UniProt P03101 1-129; P03101 137-505)” the percent disulfide-bonded into oligomers (without DTT) [2] was > 99% and the percent monomeric (with DTT) [2] was 50%.
